According to patent publication EP4442707:

How the values were obtained:
sheep serum albumin = molecular target: T1, sheep serum albumin (Ovis aries, UniProt P14639); assay: SPR pH 7.4
T1 chain: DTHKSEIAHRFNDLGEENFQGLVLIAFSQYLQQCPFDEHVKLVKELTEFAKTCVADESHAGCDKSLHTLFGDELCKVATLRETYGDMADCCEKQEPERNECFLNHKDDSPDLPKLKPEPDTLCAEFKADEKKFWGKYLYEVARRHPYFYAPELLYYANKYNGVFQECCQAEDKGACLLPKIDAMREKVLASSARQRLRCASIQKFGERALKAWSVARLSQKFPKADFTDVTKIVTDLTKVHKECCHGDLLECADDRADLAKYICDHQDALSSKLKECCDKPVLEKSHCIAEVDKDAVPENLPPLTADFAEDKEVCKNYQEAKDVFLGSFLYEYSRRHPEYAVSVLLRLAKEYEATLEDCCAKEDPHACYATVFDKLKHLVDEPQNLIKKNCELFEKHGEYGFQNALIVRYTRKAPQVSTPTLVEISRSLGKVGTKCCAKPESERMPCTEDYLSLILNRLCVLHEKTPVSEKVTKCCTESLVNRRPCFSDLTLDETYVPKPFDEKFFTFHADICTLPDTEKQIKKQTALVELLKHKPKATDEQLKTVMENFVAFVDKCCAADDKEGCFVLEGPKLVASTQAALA

dog serum albumin = molecular target: T2, dog serum albumin (Canis lupus familiaris, UniProt P49822); assay: SPR pH 7.4
T2 chain: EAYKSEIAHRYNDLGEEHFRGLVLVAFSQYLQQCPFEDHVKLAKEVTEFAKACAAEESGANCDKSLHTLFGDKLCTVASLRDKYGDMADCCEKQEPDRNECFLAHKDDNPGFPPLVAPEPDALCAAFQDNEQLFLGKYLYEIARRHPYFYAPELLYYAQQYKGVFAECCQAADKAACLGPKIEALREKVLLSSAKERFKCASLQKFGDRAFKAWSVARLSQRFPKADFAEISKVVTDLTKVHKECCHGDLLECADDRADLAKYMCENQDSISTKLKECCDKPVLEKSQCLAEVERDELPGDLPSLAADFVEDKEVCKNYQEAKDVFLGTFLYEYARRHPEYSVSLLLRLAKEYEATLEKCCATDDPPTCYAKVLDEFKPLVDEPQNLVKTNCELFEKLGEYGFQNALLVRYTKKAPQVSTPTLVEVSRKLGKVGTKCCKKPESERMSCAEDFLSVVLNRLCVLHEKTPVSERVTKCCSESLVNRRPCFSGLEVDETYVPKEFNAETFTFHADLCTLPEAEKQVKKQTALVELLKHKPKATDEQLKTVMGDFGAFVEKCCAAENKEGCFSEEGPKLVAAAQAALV

mouse serum albumin = mouse serum albumin (Mus musculus, UniProt P07724); assay: SPR pH 7.4
human serum albumin [1] = molecular target: T3, human serum albumin (Homo sapiens, UniProt P02768); assay: SPR pH 7.4
rat serum albumin = molecular target: T4, rat serum albumin (Rattus norvegicus, UniProt P02770); assay: SPR pH 7.4
T4 chain: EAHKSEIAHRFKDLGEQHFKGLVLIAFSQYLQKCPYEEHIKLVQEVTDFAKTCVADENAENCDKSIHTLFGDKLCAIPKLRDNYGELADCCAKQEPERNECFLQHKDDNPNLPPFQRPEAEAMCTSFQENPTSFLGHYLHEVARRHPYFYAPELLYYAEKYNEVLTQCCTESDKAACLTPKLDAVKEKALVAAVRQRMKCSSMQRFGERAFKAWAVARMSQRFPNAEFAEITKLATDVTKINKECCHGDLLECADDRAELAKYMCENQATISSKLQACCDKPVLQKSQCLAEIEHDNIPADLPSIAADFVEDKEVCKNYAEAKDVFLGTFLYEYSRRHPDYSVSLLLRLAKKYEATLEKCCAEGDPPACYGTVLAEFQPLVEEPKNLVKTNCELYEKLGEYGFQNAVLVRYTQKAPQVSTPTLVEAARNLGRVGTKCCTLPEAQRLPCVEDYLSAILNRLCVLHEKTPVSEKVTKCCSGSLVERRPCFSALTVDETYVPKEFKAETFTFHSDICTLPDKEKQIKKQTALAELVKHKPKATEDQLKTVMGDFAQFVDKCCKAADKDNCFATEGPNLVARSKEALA

rabbit serum albumin = molecular target: T5, rabbit serum albumin (Oryctolagus cuniculus, UniProt P49065); assay: SPR pH 7.4
T5 chain: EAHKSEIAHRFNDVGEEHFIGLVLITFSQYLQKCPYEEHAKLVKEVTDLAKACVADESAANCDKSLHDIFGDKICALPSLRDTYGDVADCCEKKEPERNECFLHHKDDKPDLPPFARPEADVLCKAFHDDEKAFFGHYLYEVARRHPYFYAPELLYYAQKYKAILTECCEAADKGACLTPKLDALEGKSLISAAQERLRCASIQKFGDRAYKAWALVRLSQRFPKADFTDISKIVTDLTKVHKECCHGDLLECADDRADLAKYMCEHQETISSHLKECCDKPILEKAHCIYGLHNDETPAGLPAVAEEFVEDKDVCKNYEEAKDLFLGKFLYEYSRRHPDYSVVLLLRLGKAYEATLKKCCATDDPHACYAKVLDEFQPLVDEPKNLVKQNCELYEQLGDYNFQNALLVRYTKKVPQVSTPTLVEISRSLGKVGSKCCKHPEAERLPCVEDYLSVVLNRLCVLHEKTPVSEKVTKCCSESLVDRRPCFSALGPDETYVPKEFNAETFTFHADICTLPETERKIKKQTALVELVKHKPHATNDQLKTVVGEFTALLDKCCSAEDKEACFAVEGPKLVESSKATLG

pig serum albumin = molecular target: T6, pig serum albumin (Sus scrofa, UniProt P08835); assay: SPR pH 7.4
T6 chain: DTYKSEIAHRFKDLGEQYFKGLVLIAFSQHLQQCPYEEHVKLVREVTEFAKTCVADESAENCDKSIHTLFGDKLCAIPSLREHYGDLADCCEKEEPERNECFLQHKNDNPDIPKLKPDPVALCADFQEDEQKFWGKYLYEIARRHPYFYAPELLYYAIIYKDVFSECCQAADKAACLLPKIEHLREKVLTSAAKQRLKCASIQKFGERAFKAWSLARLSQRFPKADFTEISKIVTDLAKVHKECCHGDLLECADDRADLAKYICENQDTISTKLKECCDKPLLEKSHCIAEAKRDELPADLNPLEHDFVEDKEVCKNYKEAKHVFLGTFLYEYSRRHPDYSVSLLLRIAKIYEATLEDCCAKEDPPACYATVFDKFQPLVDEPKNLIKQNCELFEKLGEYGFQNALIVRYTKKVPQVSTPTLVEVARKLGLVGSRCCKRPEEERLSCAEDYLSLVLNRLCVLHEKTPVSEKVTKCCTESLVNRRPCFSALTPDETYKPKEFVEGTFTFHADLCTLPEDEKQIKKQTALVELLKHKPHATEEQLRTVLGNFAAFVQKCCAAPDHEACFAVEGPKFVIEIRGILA

cynomolgus serum albumin = molecular target: T7, cynomolgus serum albumin (Macaca fascicularis, UniProt A2V9Z4); assay: SPR pH 7.4
T7 chain: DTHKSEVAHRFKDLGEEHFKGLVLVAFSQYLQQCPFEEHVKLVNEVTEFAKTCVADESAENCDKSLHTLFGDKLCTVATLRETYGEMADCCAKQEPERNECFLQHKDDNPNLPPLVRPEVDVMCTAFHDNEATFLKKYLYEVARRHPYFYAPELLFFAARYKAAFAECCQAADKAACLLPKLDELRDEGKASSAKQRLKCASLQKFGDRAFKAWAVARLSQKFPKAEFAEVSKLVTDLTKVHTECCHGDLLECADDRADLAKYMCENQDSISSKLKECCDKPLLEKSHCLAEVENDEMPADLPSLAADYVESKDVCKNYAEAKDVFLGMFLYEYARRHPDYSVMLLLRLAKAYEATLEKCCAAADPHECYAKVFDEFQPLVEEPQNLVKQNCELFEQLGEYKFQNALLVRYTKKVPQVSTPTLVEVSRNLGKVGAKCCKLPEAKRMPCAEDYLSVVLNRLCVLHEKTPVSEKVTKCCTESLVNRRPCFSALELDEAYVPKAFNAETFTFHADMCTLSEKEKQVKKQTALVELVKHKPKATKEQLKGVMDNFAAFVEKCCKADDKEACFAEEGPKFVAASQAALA

human serum albumin [2] = molecular target: T3, human serum albumin; assay: SPR pH 7.4; remark: listed apart in the source
bovine serum albumin = bovine serum albumin (Bos taurus, UniProt P02769); assay: SPR pH 7.4
human serum albumin [3] = molecular target: T3, human serum albumin; assay: SPR pH 6.0
human serum albumin [4] = molecular target: T3, human serum albumin; assay: SPR pH 5.0

B1: SEQ ID NO:19 serum albumin binder (T023500029) (antibody, V domains shown)
VH: EVQLVESGGGVVQPGDSLRLSCAASGGTFSTYVMGWFRQAPGKEREFVSAISQNSIHTYYANSVKGRFTISRDNSKNTVYLQLNSLRPEDTALYYCAASRFTSWYTADYEYDYWGQGTLVTVSS
binding result (sheep serum albumin): no binding
Kd (dog serum albumin): 1.2 nM
Kd (mouse serum albumin): 0.27 nM
koff (human serum albumin [1]): 0.0002 s⁻¹
Kd (rat serum albumin): 0.067 nM
binding result (rabbit serum albumin): no binding
Kd (pig serum albumin): 45 nM
Kd (cynomolgus serum albumin): 0.45 nM
Kd (human serum albumin [2]): 0.44 nM
binding result (bovine serum albumin): no binding
koff (human serum albumin [3]): 0.00032 s⁻¹
koff (human serum albumin [4]): 0.00051 s⁻¹
